Results published in article PMC3179936.

Biological target: recombinant leucyl aminopeptidase of T. cruzi (rLAPTc), N-terminal His-tag (Trypanosoma cruzi)
Test: AUC + SEC; sedimentation velocity of rLAPTc at 170, 56 and 10 μM, 25 mM Tris pH 8.0, 150 mM NaCl, 10°C, 42,000 rpm; s-values combined with Stokes radii from calibrated SEC (SEC-AUC method)

stoichiometry N (species eluting at 9 ml): 10.1 subunits
stoichiometry N (species eluting at 10 ml): 5.6 subunits
Substance: recombinant leucyl aminopeptidase of T. cruzi (rLAPTc), N-terminal His-tag (enzyme)
